In PMC8413895:

Target: HIV-1 Env variant ADA.CM, trimer on virions (HIV-1 (ADA.CM))

Substance: 4E10 Fab (parental, wild-type)
- IC50 of neutralization of ADA.CM pseudovirus, TZM-bl assay: 2.7 µg/mL
